According to patent US20230303983A1:

Key:
AAV1 capsid = assay: AAVX affinity HPLC, five consecutive small-scale preps on the same resin, qPCR of fractions
AAV5 capsid = assay: static binding assay on AAVX resin, qPCR of vector genomes
Anc80 capsid = assay: as above
PHP.B capsid = assay: as above
AAV4 capsid = assay: as above
rh32.33 capsid = assay: as above
AAV7m8 capsid = assay: as above
AAV8 capsid = assay: as above
rh10 capsid = assay: as above
AAV6.2 capsid = assay: as above
AAV9 capsid [1] = assay: as above
[2] = target: AAV2 capsid (AAV particles of serotype AAV2) (UniProt P03135); assay: as above
AAV7 capsid = assay: as above
AAV2_HSPG capsid = assay: as above
PHP.eB capsid = assay: AAVX affinity HPLC at room temperature (24 C), qPCR of flow-through
AAV9 capsid [3] = assay: as above

UniProt P03135, sequence (P03135 whole entry): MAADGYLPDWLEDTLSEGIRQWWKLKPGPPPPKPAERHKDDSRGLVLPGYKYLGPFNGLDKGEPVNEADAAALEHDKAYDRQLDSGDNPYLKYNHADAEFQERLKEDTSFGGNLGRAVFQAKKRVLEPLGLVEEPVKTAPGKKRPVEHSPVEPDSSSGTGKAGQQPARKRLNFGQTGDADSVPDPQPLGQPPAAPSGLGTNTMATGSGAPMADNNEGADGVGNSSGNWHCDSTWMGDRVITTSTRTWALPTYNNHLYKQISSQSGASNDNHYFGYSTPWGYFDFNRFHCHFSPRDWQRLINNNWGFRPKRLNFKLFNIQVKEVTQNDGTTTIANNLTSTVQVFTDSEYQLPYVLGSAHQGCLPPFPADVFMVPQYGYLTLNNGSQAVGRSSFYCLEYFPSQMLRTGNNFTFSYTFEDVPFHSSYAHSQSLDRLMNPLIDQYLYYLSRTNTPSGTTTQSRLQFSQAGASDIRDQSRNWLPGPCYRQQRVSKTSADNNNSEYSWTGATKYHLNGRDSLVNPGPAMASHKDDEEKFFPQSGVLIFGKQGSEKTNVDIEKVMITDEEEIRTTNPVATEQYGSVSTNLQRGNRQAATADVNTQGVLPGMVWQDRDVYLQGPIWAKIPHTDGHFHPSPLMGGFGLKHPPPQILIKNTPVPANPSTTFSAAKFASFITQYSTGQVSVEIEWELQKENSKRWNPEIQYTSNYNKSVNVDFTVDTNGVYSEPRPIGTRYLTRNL

For “POROS CaptureSelect AAVX resin ligand (camelid heavy-chain-only single-domain antibody fragment linked to poly[styrene divinylbenzene] beads) (VHH)”, the percent of input virus in flow-through (AAV1 capsid) was < 2%, the recovery (percent vector genomes of input) (AAV5 capsid) was > 95% and the recovery (percent vector genomes of input) (Anc80 capsid) was 80%. For the same substance, the recovery (percent vector genomes of input) (PHP.B capsid) was > 95%, the recovery (percent vector genomes of input) (AAV4 capsid) was > 95% and the recovery (percent vector genomes of input) (rh32.33 capsid) was > 95%. For the same substance, the recovery (percent vector genomes of input) (AAV7m8 capsid) was > 95%, the recovery (percent vector genomes of input) (AAV8 capsid) was > 95% and the recovery (percent vector genomes of input) (rh10 capsid) was > 95%. For the same substance, the recovery (percent vector genomes of input) (AAV6.2 capsid) was > 95%, the recovery (percent vector genomes of input) (AAV9 capsid [1]) was > 95% and the recovery (percent vector genomes of input) [2] was > 95%. The recovery (percent vector genomes of input) (AAV7 capsid) was > 95%, the recovery (percent vector genomes of input) (AAV2_HSPG capsid) was > 95% and the fraction of input AAV in the flow-through (PHP.eB capsid) was < 5%. The fraction of input AAV in the flow-through (AAV9 capsid [3]) was < 5%.
